Measurements from article PMC9943657, “Structural basis for topological regulation of Tn3 resolvase”.

B1: Tn3 res site III, Form I duplex (dsDNA)
DNA 1: TCGTGTCTGATATTCGATTTAAGGTACATT
DNA 2: AAATGTACCTTAAATCGAATATCAGACACG
B2: Tn3 res site III, Form II duplex (dsDNA)
DNA 1: ATTGTCTGATATTCGATTTAAGGTACA
DNA 2: ATTGTACCTTAAATCGAATATCAGACA

Columns and labels:
[1] = target: T1, Tn3 resolvase (crystallized) (Tn3 transposon, UniProt P0ADI2 1-185); test: X-ray crystallography; Form I, ~3.4 A, one dimer-DNA complex per asymmetric unit; Crystal DNA annealed at 1 mM in TE (Tris-HCl pH 8.0, EDTA), 50 mM NaCl; footprinting: synapses crosslinked with glutaraldehyde, DNase I + 10 mM MgCl2; binding buffers and temperature not in material; settings: protein: recombinant; chain copies: 2; label: none for native; 29 bp, 1-nt 5' overhang at each end
[2] = target: T1, Tn3 resolvase (crystallized); test: X-ray crystallography; Form II, ~4.0/4.5/4.0 A, two dimer-DNA complexes per asymmetric unit; Crystal DNA annealed at 1 mM in TE (Tris-HCl pH 8.0, EDTA), 50 mM NaCl; footprinting: synapses crosslinked with glutaraldehyde, DNase I + 10 mM MgCl2; binding buffers and temperature not in material; settings: protein: recombinant; chain copies: 2; label: none for native; 25 bp, 2-nt 5' overhang at each end

T1 sequence (P0ADI2 whole entry): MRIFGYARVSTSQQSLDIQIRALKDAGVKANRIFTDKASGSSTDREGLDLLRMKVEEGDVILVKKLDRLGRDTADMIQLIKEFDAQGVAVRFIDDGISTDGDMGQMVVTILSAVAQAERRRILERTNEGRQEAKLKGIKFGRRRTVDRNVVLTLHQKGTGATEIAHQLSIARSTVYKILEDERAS

Row | Binder | binding result [1] | binding result [2]
1 | B1 | binds | 
2 | B2 |  | binds
